By Kd is commonly meant the concentration at which binding is half-saturated. Lower therefore signals a tighter complex.

This test deals with T1, bacterially produced MPP2 PDZ-SH3-GK (MPP2 PSG module) (mouse).
T1 construct: source: E. coli Rosetta, purified (Ni-NTA, Superdex 75)
T1 sequence (Q9WV34 whole entry, looked up): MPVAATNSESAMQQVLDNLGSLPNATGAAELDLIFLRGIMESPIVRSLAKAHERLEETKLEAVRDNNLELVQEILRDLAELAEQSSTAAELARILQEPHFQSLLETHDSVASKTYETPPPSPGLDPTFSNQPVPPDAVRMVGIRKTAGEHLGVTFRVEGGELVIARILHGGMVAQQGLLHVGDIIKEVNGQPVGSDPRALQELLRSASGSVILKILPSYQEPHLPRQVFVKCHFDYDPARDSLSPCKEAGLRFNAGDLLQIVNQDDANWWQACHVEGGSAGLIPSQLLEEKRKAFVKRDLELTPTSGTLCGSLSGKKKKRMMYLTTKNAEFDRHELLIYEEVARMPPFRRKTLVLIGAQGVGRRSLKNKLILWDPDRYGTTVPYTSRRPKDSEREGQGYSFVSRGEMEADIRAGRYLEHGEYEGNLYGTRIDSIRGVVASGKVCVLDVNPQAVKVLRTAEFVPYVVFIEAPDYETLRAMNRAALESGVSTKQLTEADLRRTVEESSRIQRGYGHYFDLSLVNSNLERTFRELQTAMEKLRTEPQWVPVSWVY
As to the kind of experiment: ITC; ITC200 at 25 °C; 200 mM NaCl, 20 mM Tris-HCl pH 7.5, 1 mM DTT; 350 μM mCherry-tagged peptide titrated into 55 μM MPP2 PSG module in the cell; single-site binding model. The note with it: both partners purified.

B1: bacterially produced mCherry-tagged SynCAM1 peptide (C-terminus) (domain or fragment)
chain: GGGGSGGGGSGGGGSNSEEKKEYFI
B1 yielded a Kd of 3.1 ± 0.239 µM.
